The values below come from paper PMC5039622, “Characterization of aspartyl aminopeptidase from Toxoplasma gondii” (Scientific Reports, 2016).

The target in series [1] is T1, rTgAAP (TgAAP, aspartyl aminopeptidase) (Toxoplasma gondii, UniProt A0A7J6KF82).
T1 construct: gene TGRH88_002740; full-length CDS 1521 bp, ~56 kDa (55897 Da predicted in ToxoDB), N-terminal GST tag kept (~80 kDa), E. coli BL21, pCold III; mainly dodecamer, also trimer and monomer on native PAGE
T1 sequence (A0A7J6KF82 1-508): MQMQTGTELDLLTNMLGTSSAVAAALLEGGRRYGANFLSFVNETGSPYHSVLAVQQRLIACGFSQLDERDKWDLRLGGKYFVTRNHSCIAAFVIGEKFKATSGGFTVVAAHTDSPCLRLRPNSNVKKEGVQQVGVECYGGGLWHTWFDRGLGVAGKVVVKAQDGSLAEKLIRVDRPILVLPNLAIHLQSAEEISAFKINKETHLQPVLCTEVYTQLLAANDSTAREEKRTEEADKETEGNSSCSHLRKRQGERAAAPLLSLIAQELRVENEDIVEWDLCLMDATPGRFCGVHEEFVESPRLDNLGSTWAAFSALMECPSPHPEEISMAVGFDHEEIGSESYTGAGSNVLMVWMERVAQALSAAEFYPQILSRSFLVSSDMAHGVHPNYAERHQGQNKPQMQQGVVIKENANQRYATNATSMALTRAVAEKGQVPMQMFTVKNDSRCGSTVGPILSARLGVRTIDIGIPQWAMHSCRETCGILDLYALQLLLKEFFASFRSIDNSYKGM
As to the kind of experiment: inhibition of H-Glu-MCA hydrolysis. As to conditions: 1 h pre-incubation at 37 °C; substrate H-Glu-MCA. The series is classed as biochemical.

Substrate in series [2]: Cc1cc(=O)oc2cc(NC(=O)[C@@H](N)Cc3c[nH]cn3)ccc12
As to the kind of experiment: fluorogenic MCA release, initial rates. The series is classed as biochemical, Toxoplasma gondii. The settings on record: 37 °C, enzyme 0.3 μM, metal not stated for the kinetics. The source says: (§1) fluorogenic MCA release, initial rates on rTgAAP (TgAAP, aspartyl aminopeptidase)

Substrate in series [3]: Cc1cc(=O)oc2cc(NC(=O)[C@@H]3CCCN3)ccc12
Description: fluorogenic MCA release, initial rates. The series is classed as biochemical, Toxoplasma gondii. As to conditions: 37 °C, enzyme 0.3 μM, metal not stated for the kinetics, printed kcat/Km 0.28 disagrees tenfold with printed kcat and Km.
Description: as §1

Substrate in series [4]: Cc1cc(=O)oc2cc(NC(=O)[C@@H](N)CCC(=O)O)ccc12
As to the kind of experiment: fluorogenic MCA release, initial rates. The series is classed as biochemical, Toxoplasma gondii. As to conditions: 37 °C, enzyme 0.3 μM, metal not stated for the kinetics.
Description: as §1

Substrate in series [5]: Cc1cc(=O)oc2cc(NC(=O)[C@@H](N)CC(=O)O)ccc12
As to the kind of experiment: fluorogenic MCA release, initial rates. The series is classed as biochemical, Toxoplasma gondii. The settings on record: 37 °C, enzyme 0.3 μM, metal not stated for the kinetics.
Description: as §1

Substrate in series [6]: Cc1cc(=O)oc2cc(NC(=O)[C@@H](N)CC(N)=O)ccc12
Description: fluorogenic MCA release, initial rates. The series is classed as biochemical, Toxoplasma gondii. As to conditions: 37 °C, enzyme 0.3 μM, metal not stated for the kinetics.
Description: as §1

Substrate in series [7]: Cc1cc(=O)oc2cc(NC(=O)[C@@H](N)CO)ccc12
As to the kind of experiment: fluorogenic MCA release, initial rates. As to conditions: 37 °C, enzyme 0.3 μM, metal not stated for the kinetics. The series is classed as biochemical, Toxoplasma gondii.
Description: as §1

For orientation: % inhibition means how much of the control response was suppressed. What is called Km is the concentration of substrate that gives half-maximal velocity. By kcat is commonly meant the number of substrate molecules converted per active site and unit of time at saturation. In general, kcat/Km refers to the second-order rate constant that governs catalysis at low substrate concentration.

`Cl.Oc1ccc(CCNc2c3ccccc3nc3ccccc23)cc1O` [CID 23724194]: the “% inhibition at 1 mM” value in series [1] is above 50%.

B1: rTgAAP (TgAAP, aspartyl aminopeptidase) (Toxoplasma gondii) (protein)
chain: T1 sequence (A0A7J6KF82 1-508)
notes: full-length CDS 1521 bp, ~56 kDa (55897 Da predicted in ToxoDB), N-terminal GST tag kept (~80 kDa), E. coli BL21, pCold III; mainly dodecamer, also trimer and monomer on native PAGE
For the molecule B1, the Km in series [2] came out at 88.70 ± 2.53 µM; in series [3], 98.55 ± 1.96 µM; in series [4] it was 7.35 ± 0.73 µM; in series [5] it was 12.84 ± 0.21 µM; in series [6], 24.32 ± 0.26 µM; in series [7], 92.87 ± 3.38 µM. Moreover, the kcat in series [2] was 0.208 ± 0.0043 s⁻¹; in series [4] it was 1.4 ± 0.306 s⁻¹; in series [5], 1.1 ± 0.0648 s⁻¹; in series [6] it was 0.484 ± 0.0126 s⁻¹; in series [7], 0.123 ± 0.0086 s⁻¹. Moreover, the kcat/Km in series [2] was 2350 M⁻¹ s⁻¹; in series [4], 190000 M⁻¹ s⁻¹; in series [5] it was 85700 M⁻¹ s⁻¹; in series [6] it was 19900 M⁻¹ s⁻¹; in series [7] it was 1330 M⁻¹ s⁻¹.
